This is an account of results in US20180086829A1 (published 2018).

Read-outs that look alike come from different tables or passages of the source.

Experiment in all cases: ELISA
Test [1] has as its target T1, human LILRB4 (UniProt Q8NHJ6 22-259).
For test [2], the target named is T1, human LILRB4. This is another data set of the same source.
The target of test [3] is T1, human LILRB4. This is another data set of the same source.

T1 sequence (Q8NHJ6 22-259): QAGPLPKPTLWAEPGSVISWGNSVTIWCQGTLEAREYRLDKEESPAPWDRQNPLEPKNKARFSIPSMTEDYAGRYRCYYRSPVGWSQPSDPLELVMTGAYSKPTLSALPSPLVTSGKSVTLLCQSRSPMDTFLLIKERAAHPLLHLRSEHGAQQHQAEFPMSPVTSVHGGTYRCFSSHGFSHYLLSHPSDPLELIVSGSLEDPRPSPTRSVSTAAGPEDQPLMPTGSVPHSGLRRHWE

B1: anti-LILRB4 rabbit monoclonal antibody #161-2 (antibody, V domains shown)
VH: QSVKESGGRLVTPGTPLTLTCTVSGIDLSVYLMSWVRHSPGKGLEYIGFINSAGITAYATWAKGRFIISKTSTTVDLKVTSPTTEDTATYFCARNWIRLDLWGQGTLVTISS
VL: TQTPASVSAAVGGTVTISCQSSETIYKNYLSWFQQKPGQPPKLLIYESSKLASGVPSRFSGSGSGTQFTLTISDVQCDDAATYYCLGGYTDGRDTIFGGGTEVEIK
The term EC50 denotes the concentration needed to bring the measured effect to its halfway point. Lower therefore signals a more potent agent. As to B1, the EC50 in test [1] was 0.0126 µg/mL.

B2: anti-LILRB4 rabbit monoclonal antibody #161-1 (antibody, V domains shown)
VH: QSVKESGGRLVTPGTPLTLTCTVSGIDLSVYLMSWVRHSPGKGLEYIGFINSAGITAYATWAKGRFIISKTSTTVDLKVTSPTTEDTATYFCARNWIRLDLWGQGTLVTISS
VL: ELDLTQTPASVSAAVGGTVTISCQSSETIYKNYLSWFQQKPGQPPKLLIYESSKLASGVPSRFSGSGSGTQFTLTISDVQCDDAATYYCLGGYTDGRDTIFGGGTELEIK
In test [2], B2 yielded an EC50 of 0.0104 µg/mL.

B3: anti-LILRB4 rabbit monoclonal antibody #78 (antibody, V domains shown)
VH: QSLQESGGRLVTPGTPLTLTCTVSGIDLSVYLMSWVRQSPGKGLEYIGFINSAGITAYATWAKGRFIISKTSTTVDLKVTSPTTEDTATYFCARNWIRLDLWGQGTLVTISS
VL: ELVLTQTPASVSAAVGGTVTISCQSSESIYKNYLSWFQQKPGQPPKLLIYETSKLASGVPSRFSGSGSGTQFTLTISDVQCDDAATYYCLGGYTNGRDTIFGGGTELEIK
Turning to B3, the concentration for a half-maximal effect (EC50) in test [3] amounted to 0.0121 µg/mL.

B4: anti-LILRB4 rabbit monoclonal antibody #120 (antibody, V domains shown)
VH: QSLEESGGRLVTPGTPLTLTCTVSGIDLNKYAMTWVRQAPGKGLEYIGFINIVGIAGYATWAKGRFTISKTSTTVDLKVTSPTTEDTATYFCARNWIRLDLWGQGTLVTVSS
VL: ELDLTQTPASVSAAVGGTVTISCQSSESLYKKNYLSWFQQKPGQPPKLLIFEASKLASGVPSRFSGSGSGTQFTLTISDVQCDDAASYYCLGDYTNGRDTTFGGGTEVVVK
B4 came in with an EC50 in test [3] of 0.0119 µg/mL.

B5: anti-LILRB4 rabbit monoclonal antibody #192 (antibody, V domains shown)
VH: EQSLEESGGGLVTPGGTLTLTCTVSGFSLSNNAMSWVRQAPGKGLEWIGVILLAGPTYYASWAKGRFTISKTSTTVDLKITSPTTEDTATYFCAIAIGSRPFALWGQGTLVTISS
VL: ELVLTQTPSSTSAAVGGTVTINCQSSQSVYSNWLSWFQQKPGQPPKPLIYLASTLASGVPSRFSGSGSGTQFTLTISDVQCDDAATYYCQGGYNGNIYTFGGGTEVVVK
On to B5, for which, in test [2], the EC50 was 0.021 µg/mL.

B6: anti-LILRB4 rabbit monoclonal antibody #208 (antibody, V domains shown)
VH: EQSVEESGGGLVTPGGTLTLTCTVSGFSLSNNAMSWVRQAPGKGLEWIGVILLSGTTYYASWAKGRFTISKTSTTVDLKITSPTTEDTATYFCAIAIGSRPFALWGQGTLVTISS
VL: ELVMTQTPSSTSAAVGGTVTINCQSSQSVYSNWLSWFQQKPGQPPKPLIYLASTLASGVPSRFSGSGSGTQFTLTISDVQCDDAATYYCQGGYNGNIYTFGGGTEVVVK
As for B6, the EC50 in test [1] was determined as 0.0198 µg/mL.
